These results are taken from US10654917B2, “Antibody molecules and peptide delivery systems for use in alzheimer's disease and related disorders” (TECHNOPHAGE, INVESTIGAÇĀO E DESENVOLVIMENTO EM …, priority 2015, dated 2020).

Series [1] relates to in vitro model of the BBB (bEnd3 cells). Nature of the series: Transmigration of radiolabelled peptides across in vitro BBB model. Format: in vitro ADME. On the procedure:
Using the same in vitro model of the BBB described above, peptides labelled with technetium and gallium were tested for the ability to cross endothelial barrier. For each peptide, bEnd3 cells cultured on “tissue culture inserts” were incubated with 5 ρCimL^−1-labelled peptide for different incubation times: 15 min, 5 h and 24 h. As a control, the model without cells was used (Control no cells) or (Filters) and compared to models with cells (BBB) or (Cells).
FIGS. 21A-21F show the percent activity of the radioisotope technetium-labelled peptides at the apex and base after 5 hours of incubation with the in vitro model described above, using the BBB-model or no cells (as a control); and values were obtained from two independent assays. […] Moreover, the results indicated promising candidates. Specifically, for each of pepH1 and pepH3, there was an overpass of 50% in the control, compared with only 20% in the presence of a cell barrier. The translocation of pepH2 was not observed in either the control nor in the BBB model.
Results for the incubations of 15 minutes, 5 hours, and 24 hours are shown together in FIGS. 22A-22F. That is, FIGS. 22A-22F show the percent activity of the radioisotope technetium-labelled peptides at the apex and base after 15 minutes, 5 hours, and 24 hours of incubation with the in vitro model described above, using the BBB-model or no cells (as a control); and values were obtained from two independent assays. Differences again were observed, confirming the integrity of the barrier, as well as identifying peptides that crossed the barrier. […] PepR′ thus was excluded from further tests.
(§1) Table 9 summarizes results regarding uptake (internalization) and cellular interaction, as well as transmigration across an in vitro model for BBB, for peptides labelled with technetium and gallium, after 15 minutes, 5 hours, and 24-hours of incubation, based on percent recovery of radiopeptide. The Table lists the peptides, providing each peptide's name, % BBB transmigration, % cellular interaction, and % internalized, each after […], 5 hours, and 24 hours of incubation.

Series [2] can be described thus: Features of peptides: isoelectric point, charge. The class given is physicochemical. The note with it: original peptide. The source says: Table 7 lists each peptide's name, isoelectric point (PI), charge (number of positive residues), calculated mass (in Da), and ion found; as well as the name, calculated mass, and found ion for the corresponding conjugate; and also retention times in HPLC and the partition coefficient (log Po/w). These values allowed the determination of the hydrophilic nature of peptides, where pepH1 and pepH4 were identified as the most hydrophilic peptides.

Series [3] has as its system bEnd3 cells. Nature of the series: Uptake test: cellular interaction (acid wash) and internalization (lysate). Format: cell-based. On the procedure: In addition to testing models of BBB, an uptake test was performed to determine the internalizing ability of the candidate peptides. BEnd3 cells were cultured in 24 well plates. At each time point, the medium containing the peptide, which had not interacted with the cells, was collected. In the next step, the cells were washed with an acidic buffer that releases peptides more strongly bound to the cell membrane (sample acid wash). Finally, the cells were lysed to release internalized peptides and to quantify the activity inside the cells. Results are showing in FIGS. 23A-23E.
FIGS. 23A-23E show percent activity of the radioisotope technetium-labelled peptides in the media, wash buffer (acid wash) and lysate, after 15 minutes, 5 hours, and 24 hours of incubation with bEnd3 cells; and values were obtained from two independent assays. […] PepM′, as well as showing high transmigration (about 50%), also appeared to become internalized and accumulated within the cells (about 13% of radioactivity in the lysate).
as §1

The test system of series [4] is bEnd3 cells. Nature of the series: MTT cell viability assay. The class given is cell-based. As for the experimental part:
To test possible toxicity of selected peptides to BBB cells, 5×10^4 bEnd3 cells were cultured in 96-well plates, at 100 μL/well, and incubated for 24 hours. The peptides then were added at concentrations of 0.1-100 μM, with the exception of pepM′ (which was added at concentrations of 0.1-50 μM). As a control providing 100% of viability, a well with serum-free media was included.
After 24 hours of incubation, a MTT assay was performed, which is a colorimetric assay for assessing cell metabolic activity. A MTT solution at 5 mg/mL in PBS was added to each well and incubated for 2 hours. After this period, the solution was removed and DMSO added to solubilize violet crystals formed. Absorbance was measured at 540 nm. The viability percentage [Absorbancepeptide-treated cells/Absorbanceuntreated-cells)*100] was calculated and IC50 values were calculated from three independent assays.
As FIGS. 24A-24E show, the selected peptides have no effect on cell viability, specifically, there was no observable nor measurable effect using the assay described.

On the set-up of series [5]: species or system CD1 mice. The note with it: mouse, in vivo. As for the experimental part:
The different antibody-peptide constructs were used in biodistribution assays, and results compared with the biodistribution of the respective DEN2C peptides (pepH1, pepH2, pepH3, and pepM′, chemically synthesized). […] After expression and purification, the sdAbs and sdAb-peptide constructs were conjugated to technetium (^99Tc) and a biodistribution assay was performed, as previously described.
Tables 14-16 show the biodistribution of different anti-BAP42 sdAbs and constructs thereof with different peptides (“pepH3”).

[6] abbreviates: 99mTc, 24 hours, listed as PepHM′.

For the molecule KEIGRMLNILNRRRR [PepR′], the BBB transmigration entry in series [1] (99mTc, 24 hours) is given as “more limited in crossing the barrier”.
For KSKAINVLRGFRKEIGRMLNILN [PepH4], the “Charge (number of positive residues)” value in series [2] stood at 6. The “PI (isoelectric point)” value in series [2] came out at 11.7. Moreover, the “where the radiopeptide is found in the uptake test (media, acid wash, lysate)” value in the series on bEnd3 cells [3] (99mTc) was “mainly remained in the incubation medium”. Besides, the Cellular interaction amounted to 2.06 ± 0.3% in the series with bEnd3 cells [3] (99mTc, 0.25 hours); 10.10 ± 0.1% in the series on bEnd3 cells [3] (99mTc, 5 hours); 10.23 ± 0.8% with bEnd3 cells [3] (99mTc, 24 hours); 4.06 ± 0.2% in the series on bEnd3 cells [3] (GaCl3, 0.25 hours); 3.00 ± 0.1% in the series on bEnd3 cells [3] (GaCl3, 5 hours); 3.82 ± 0.1% in the series with bEnd3 cells [3] (GaCl3, 24 hours). The Internalization in the series on bEnd3 cells [3] (99mTc, 0.25 hours) was determined as 0.17 ± 0.0%; in the series with bEnd3 cells [3] (99mTc, 5 hours), 1.53 ± 0.0%; in the series on bEnd3 cells [3] (99mTc, 24 hours), 2.83 ± 0.2%; in the series with bEnd3 cells [3] (GaCl3, 0.25 hours) it was 0.26 ± 0.0%; in the series with bEnd3 cells [3] (GaCl3, 5 hours), 0.78 ± 0.0%; with bEnd3 cells [3] (GaCl3, 24 hours) it was 1.55 ± 0.1%. In addition, the BBB transmigration in series [1] (99mTc, 0.25 hours) was 3.30 ± 0.5%; in series [1] (99mTc, 5 hours), 30.08 ± 1.6%; in series [1] (GaCl3, 0.25 hours), 0.93 ± 0.1%; in series [1] (GaCl3, 5 hours), 16.60 ± 1.1%; in series [1] (GaCl3, 24 hours) it was 60.79 ± 2.6%.
Regarding LVAFLRFLTIPPTAGILKRW [PepM′], the “effect on cell viability” value with bEnd3 cells [4] (0.1-100 μM (pepM′ 0.1-50 μM), 24 hours) is reported as “small decrease in viability”. Besides, the cell death entry with bEnd3 cells [4] (concentration below 40 μM, peptide in DMSO) is listed as “no cell death”. Further, in series [2], the “Charge (number of positive residues)” value amounted to 3. For the same molecule, the “PI (isoelectric point)” value in series [2] is 12.0. Besides, the Cellular interaction in the series with bEnd3 cells [3] (99mTc, 24 hours) came to 8.32 ± 1.9%; with bEnd3 cells [3] (GaCl3, 24 hours) it was 2.23 ± 0.1%. The Internalization result is reported as “about 13%” in the series with bEnd3 cells [3] (99mTc, 24 hours); 12.81 ± 2.0% in the series on bEnd3 cells [3] (setting [6]); 3.68 ± 0.0% in the series on bEnd3 cells [3] (GaCl3, 24 hours). Further, the BBB transmigration entry is given as “about 50%” in series [1] (99mTc, 24 hours); 53.47 ± 3.1% in series [1] (setting [6]); about 50% in series [1] (99mTc, 24 hours, listed as pepM); 47.31 ± 1.2% in series [1] (GaCl3, 24 hours).

B1: #27in: anti-BAP42 sdAb, SEQ ID NO: 4 (antibody, V domains shown)
VL: ELVLTQTPSSVSAAVGGTVTINCQASQSVSNRLAWYQQKPGQPPKLLIYGASRLESGVPSRFRGSGSGTEFTLTISGMKAEDAATYYCQSCYYSVGVTFGAGTNVEIK
In the case of B1, in series [5], the “factor by which washout from the brain is slowed on linking to delivery peptide pepH3” value was “about 2” and the “factor of increase of presence in the brain on linking to delivery peptide pepH3” value is on record as “about 6”.
